Experimental data: patent US9393284B2, “Visfatin therapeutic agents for the treatment of acne and other conditions” (ARAVA BIO-TECH LTD., priority 2009, dated 2016)

Tests used:
[1] = test system: sebaceous glands; experiment: Number of sebocytes in sebaceous glands of adult BalbC mice after topical or intradermal visfatin (H&E staining); assay type: in vivo, Mus musculus; conditions: 0.01 μg/ml, 200 μL once daily for 4 days
Description: Preparation of Paraffin Embedded Skin Sections: Skin biopsies were performed on study mice. Skin biopsy samples were fixed in 4% paraformaldehyde then dehydrated with increasing concentrations of ethanol (50-100%). Dehydrated biopsy samples were immersed twice in xylene, then once in a 1:1 solution of paraffin and xylene and finally three times in pure melted paraffin at a temperature of 60° C. Paraffin blocks were then sectioned with a microtome and the resulting sections were mounted on slides.
Hematoxylin & Eosin Staining: Paraffin embedded skin biopsy section slides were incubated at 60° C. for 60 minutes and deparaffinized by washing the slides twice with toluene (100%) for 10 minutes and rehydrating the skin biopsy section slides in decreasing concentration of ethanol (100-50%) for 5 minutes each. The slides then were stained with a ready to use solution of hematoxylin for 5 minutes, rinsed with water, stained with eosin (0.5% in double distilled water) for 1.5 minutes and washed twice by rapid immersion in 70% ethanol. […]
Skin samples were fixed in 4% paraformaldehyde and paraffin embedded. The number of cells with the bubbled shaped morphology characteristic of sebocytes were then counted and calculated as a percentage of the number of total cells in each sebaceous gland by microscopic examination at a magnification of 40× using a Nikon Eclipse 50i microscope. […]

[2] = test system: sebaceous glands; experiment: Maturation and sebum accumulation of sebaceous glands in newborn BalbC mice treated with visfatin (Oil Red O, H&E); assay type: in vivo, Mus musculus
Description: Preparation of Frozen Skin Sections: Skin biopsies were embedded in optimum cutting temperature compound (OCT) and immediately sectioned by cryostat-microtome and mounted on slides.
Hematoxylin & Eosin Staining: Paraffin embedded skin biopsy section slides were incubated at 60° C. for 60 minutes and deparaffinized by washing the slides twice with toluene (100%) for 10 minutes and rehydrating the skin biopsy section slides in decreasing concentration of ethanol (100-50%) for 5 minutes each. The slides then were stained with a ready to use solution of hematoxylin for 5 minutes, rinsed with water, stained with eosin (0.5% in double distilled water) for 1.5 minutes and washed twice by rapid immersion in 70% ethanol. Thereafter, the slides were dehydrated by washing once with 95% ethanol for 5 minutes, twice with 100% ethanol for 5 minutes and twice with xylene (100%) for 10 minutes. This was followed by the application of ENTELLAN™ (Merck KGaA, Darmstadt, Germany) and the mounting of coverslips.
Oil Red O Staining: Frozen skin biopsy section slides were fixed in 1% neutral-buffered formalin for 5 minutes, washed in deionized water, and incubated in 60% isopropanol for 5 minutes. […]

B1: visfatin: recombinant Mus musculus visfatin (Enzo Life Sciences), in PBS, topical or intradermal solution (protein, UniProt Q99KQ4 1-491, looked up)
Nicotinamide …: MNAAAEAEFNILLATDSYKVTHYKQYPPNTSKVYSYFECREKKTENSKVRKVKYEETVFYGLQYILNKYLKGKVVTKEKIQEAKEVYREHFQDDVFNERGWNYILEKYDGHLPIEVKAVPEGSVIPRGNVLFTVENTDPECYWLTNWIETILVQSWYPITVATNSREQKKILAKYLLETSGNLDGLEYKLHDFGYRGVSSQETAGIGASAHLVNFKGTDTVAGIALIKKYYGTKDPVPGYSVPAAEHSTITAWGKDHEKDAFEHIVTQFSSVPVSVVSDSYDIYNACEKIWGEDLRHLIVSRSTEAPLIIRPDSGNPLDTVLKVLDILGKKFPVTENSKGYKLLPPYLRVIQGDGVDINTLQEIVEGMKQKKWSIENVSFGSGGALLQKLTRDLLNCSFKCSYVVTNGLGVNVFKDPVADPNKRSKKGRLSLHRTPAGNFVTLEEGKGDLEEYGHDLLHTVFKNGKVTKSYSFDEVRKNAQLNIEQDVAPH
[1]; intradermal
  number of sebocytes present inside the sebaceous glands relative to control mice: increased
[1]; topical
  number of sebocytes present inside the sebaceous glands relative to control mice: increased
[2]; topical visfatin 0.01 μg/ml 100 μL once daily, day 3 after birth
  sebum in sebaceous glands based on Oil Red O staining: do contain sebum
[2]; topical visfatin, day 4 after birth
  maturation of sebaceous glands (H&E staining): induces the maturation of sebaceous glands
